In test [1] the target is human CD39 protein (Octet assays) (human). The test can be described thus: Octet, antibody on sensor, CD39 gradient.
In test [2] the target is 6×His tagged human CD39 (human). The test can be described thus: Biacore, antibody captured, 6×His human CD39 as analyte, 1:1 model.

As a reminder, the Kd is the concentration at which binding is half-saturated. Read a high Kd as a looser complex. A word on the koff: it is a measure of how fast the partners let go of each other. A higher koff goes with fast dissociation. As a reminder, the kon is a measure of how fast the partners come together. A higher kon goes with fast association.

Chain of human CD39 protein (Octet assays) (human) (P49961 38-478): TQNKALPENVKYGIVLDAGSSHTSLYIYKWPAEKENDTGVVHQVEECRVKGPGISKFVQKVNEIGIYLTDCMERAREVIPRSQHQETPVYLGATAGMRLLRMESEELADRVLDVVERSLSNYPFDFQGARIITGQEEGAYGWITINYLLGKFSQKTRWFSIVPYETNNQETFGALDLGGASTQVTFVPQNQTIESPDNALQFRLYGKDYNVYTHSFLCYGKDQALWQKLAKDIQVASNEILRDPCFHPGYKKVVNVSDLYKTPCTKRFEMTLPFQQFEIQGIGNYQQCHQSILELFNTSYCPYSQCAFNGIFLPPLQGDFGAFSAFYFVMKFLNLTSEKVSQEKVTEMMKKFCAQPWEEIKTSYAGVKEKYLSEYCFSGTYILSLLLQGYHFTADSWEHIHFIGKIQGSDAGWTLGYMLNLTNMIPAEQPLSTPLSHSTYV
Chain of 6×His tagged human CD39 (human) (P49961 38-478): as above

B1: hu23.H5L5 (antibody, from a related filing, V domains shown)
VH: QVQLVQSGAEVKKPGASVKVSCKASGYNLKDTFLHWVRQAPGQGLEWMGRIDPANGNIKYDPKFQGRVTITADTSANTAYMELISLRSEDTAVYYCANSPYYYGSGYRIFDVWGQGTTVTVSS
VL: QIVLTQSPATLSLSPGERATLSCSAFSSVNYMHWYQQKPGQAPRLLIYTTSNLASGIPTRFSGSGSGTSYTLTISSLEPEDFAVYYCQQRSTYPFTFGQGTKLEIK
As to B1, in test [1], the Kd is 0.687 nM, the koff worked out at 9.36e-05 s⁻¹ and the kon came to 136000 M⁻¹ s⁻¹. Further, in test [2], the Kd turned out to be 19.5 nM, the koff stood at 0.0016 s⁻¹ and the kon amounted to 82200 M⁻¹ s⁻¹.

For the origin of these results see US20230416394A1.
